Reference: US20220411483A1 (Chugai, published 2022)
Residue numbers refer to the chain shown, from its start. Each block holds one binder with its values, some of them ahead of it.

What was measured:
[1] = target: T1, FcγRIIa R type extracellular domain, His tag (human, UniProt P12318 34-217); experiment: SPR, bound amount per captured antibody
T1 construct: extracellular domain; also called FcgRIIaR
T1 sequence (looked up): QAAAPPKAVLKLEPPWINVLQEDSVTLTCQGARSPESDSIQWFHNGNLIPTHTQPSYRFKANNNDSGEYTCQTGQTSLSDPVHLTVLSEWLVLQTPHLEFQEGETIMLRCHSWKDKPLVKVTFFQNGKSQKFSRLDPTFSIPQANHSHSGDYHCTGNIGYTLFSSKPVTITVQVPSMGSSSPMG

[2] = target: T2, FcγRIIb extracellular domain, His tag (human, UniProt P31994 43-217); experiment: SPR, bound amount per captured antibody
T2 construct: extracellular domain; also called FcgRIIb
T2 sequence (looked up): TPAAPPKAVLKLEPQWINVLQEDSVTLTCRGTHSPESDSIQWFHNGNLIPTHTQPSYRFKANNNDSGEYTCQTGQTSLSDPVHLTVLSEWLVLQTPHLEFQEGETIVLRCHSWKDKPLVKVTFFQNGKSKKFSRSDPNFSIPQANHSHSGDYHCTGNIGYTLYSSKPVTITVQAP

[3] = target: T3, FcγRIa extracellular domain, His tag (human, UniProt P12314 16-292); experiment: SPR, KD ratio
T3 construct: whole entry named; also called FcgRIa
T3 sequence (P12314 16-292): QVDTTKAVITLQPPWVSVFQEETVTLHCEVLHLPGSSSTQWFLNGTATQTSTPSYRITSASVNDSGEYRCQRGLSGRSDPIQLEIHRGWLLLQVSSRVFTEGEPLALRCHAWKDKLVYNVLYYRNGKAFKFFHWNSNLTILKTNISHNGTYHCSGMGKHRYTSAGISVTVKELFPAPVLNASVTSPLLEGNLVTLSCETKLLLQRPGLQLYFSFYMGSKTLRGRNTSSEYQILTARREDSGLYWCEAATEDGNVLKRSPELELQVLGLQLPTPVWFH

[4] = target: T1, FcγRIIa R type extracellular domain, …; experiment: SPR, KD ratio
[5] = target: T4, FcγRIIIa V type extracellular domain, His tag (human, UniProt P08637 17-208); experiment: SPR, KD ratio
T4 construct: extracellular domain; also called FcgRIIIaV
T4 sequence (P08637 17-208 F176V): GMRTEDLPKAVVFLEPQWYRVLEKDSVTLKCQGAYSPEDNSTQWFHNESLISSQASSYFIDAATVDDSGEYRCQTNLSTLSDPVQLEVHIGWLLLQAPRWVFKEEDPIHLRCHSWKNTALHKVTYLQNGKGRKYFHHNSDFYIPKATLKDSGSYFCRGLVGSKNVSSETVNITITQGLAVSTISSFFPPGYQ

[6] = target: T5, FcγRIIa H type extracellular domain, His tag (human, UniProt P12318 34-217); experiment: SPR, KD ratio
T5 construct: extracellular domain; also called FcgRIIaH
T5 sequence (looked up): T1 sequence (looked up) with R134H

[7] = target: T2, FcγRIIb extracellular domain, His tag; experiment: SPR, KD ratio

- Relative FcgRIIaR-binding Activity [1]: 18.2 % of IL6R-G1d/IL6R-L
- Relative FcgRIIb-binding Activity [2]: 128 % of IL6R-G1d/IL6R-L
- Relative FcgRIa-binding Activity [3]: 0.0206 fold of IL6R-G1d/IL6R-L
- Relative FcgRIIaR-binding Activity [4]: 0.032 fold of IL6R-G1d/IL6R-L
- Relative FcgRIIIaV-binding Activity [5]: 0.007 fold of IL6R-G1d/IL6R-L
- Relative FcgRIIaH-binding Activity [6]: 0.014 fold of IL6R-G1d/IL6R-L
- Relative FcgRIIb-binding Activity [7]: 2.02 fold of IL6R-G1d/IL6R-L
B1: IL6R-P654/IL6R-L (antibody, human IgG1, kappa)
heavy: QVQLQESGPGLVKPSETLSLTCAVSGHSISHDHAWSWVRQPPGEGLEWIGFISYSGITNYNPSLQGRVTISRDNSKNTLYLQMNSLRAEDTAVYYCARSLARTTAMDYWGEGTLVTVSSASTKGPSVFPLAPSSKSTSGGTAALGCLVKDYFPEPVTVSWNSGALTSGVHTFPAVLQSSGLYSLSSVVTVPSSSLGTQTYICNVNHKPSNTKVDKKVEPKSCDKTHTCPPCPAPELLGGDSVMLFPPKPKDTLMISRTPEVTCVVVDVSHEDPEVKFNWYVDGVEVHNAKTKPREEQENSTYRVVSVLTVLHQDWLNGKEYKCKVNNKALPAPIEKTISKAKGQPREPQVYTLPPSRDELTKNQVSLTCLVKGFYPSDIAVEWESNGQPENNYKTTPPVLDSDGSFFLYSKLTVDKSRWQQGNVFSCSVMHEALHNHYTQKSLSLSP
light: not shown

- Relative FcgRIIaR-binding Activity [1]: 10 % of IL6R-G1d/IL6R-L
- Relative FcgRIIb-binding Activity [2]: 127 % of IL6R-G1d/IL6R-L
- Relative FcgRIa-binding Activity [3]: 0.0005 fold of IL6R-G1d/IL6R-L
- Relative FcgRIIaR-binding Activity [4]: 0.015 fold of IL6R-G1d/IL6R-L
- Relative FcgRIIIaV-binding Activity [5]: 0.006 fold of IL6R-G1d/IL6R-L
- Relative FcgRIIaH-binding Activity [6]: 0.005 fold of IL6R-G1d/IL6R-L
- Relative FcgRIIb-binding Activity [7]: 1.17 fold of IL6R-G1d/IL6R-L
B2: IL6R-P729/IL6R-L (antibody, human IgG1, kappa)
heavy: B1 heavy with L237F, G239Q, H270P, N326S
light: not shown

- Relative FcgRIIaR-binding Activity [1]: 15.4 % of IL6R-G1d/IL6R-L
- Relative FcgRIIb-binding Activity [2]: 115 % of IL6R-G1d/IL6R-L
- Relative FcgRIa-binding Activity [3]: 0.0194 fold of IL6R-G1d/IL6R-L
- Relative FcgRIIaR-binding Activity [4]: 0.026 fold of IL6R-G1d/IL6R-L
- Relative FcgRIIIaV-binding Activity [5]: 0.005 fold of IL6R-G1d/IL6R-L
- Relative FcgRIIaH-binding Activity [6]: 0.009 fold of IL6R-G1d/IL6R-L
- Relative FcgRIIb-binding Activity [7]: 1.64 fold of IL6R-G1d/IL6R-L
B3: IL6R-P657/IL6R-L (antibody, human IgG1, kappa)
heavy: B1 heavy with N326S, A332Y
light: not shown

- Relative FcgRIIaR-binding Activity [1]: 17.5 % of IL6R-G1d/IL6R-L
- Relative FcgRIIb-binding Activity [2]: 109 % of IL6R-G1d/IL6R-L
- Relative FcgRIa-binding Activity [3]: 0.033 fold of IL6R-G1d/IL6R-L
- Relative FcgRIIaR-binding Activity [4]: 0.03 fold of IL6R-G1d/IL6R-L
- Relative FcgRIIIaV-binding Activity [5]: 0.012 fold of IL6R-G1d/IL6R-L
- Relative FcgRIIaH-binding Activity [6]: 0.01 fold of IL6R-G1d/IL6R-L
- Relative FcgRIIb-binding Activity [7]: 1.28 fold of IL6R-G1d/IL6R-L
B4: IL6R-P661/IL6R-L (antibody, human IgG1, kappa)
heavy: B1 heavy with M243F, E298Y, S300A, N326S, A332H
light: not shown

- Relative FcgRIIaR-binding Activity [1]: 18.2 % of IL6R-G1d/IL6R-L
- Relative FcgRIIb-binding Activity [2]: 138 % of IL6R-G1d/IL6R-L
- Relative FcgRIa-binding Activity [3]: 0.0118 fold of IL6R-G1d/IL6R-L
- Relative FcgRIIaR-binding Activity [4]: 0.032 fold of IL6R-G1d/IL6R-L
- Relative FcgRIIIaV-binding Activity [5]: 0.007 fold of IL6R-G1d/IL6R-L
- Relative FcgRIIaH-binding Activity [6]: 0.011 fold of IL6R-G1d/IL6R-L
- Relative FcgRIIb-binding Activity [7]: 2.68 fold of IL6R-G1d/IL6R-L
B5: IL6R-P656/IL6R-L (antibody, human IgG1, kappa)
heavy: B1 heavy with N326S, A332H
light: not shown

- Relative FcgRIIaR-binding Activity [1]: 13.7 % of IL6R-G1d/IL6R-L
- Relative FcgRIIb-binding Activity [2]: 127 % of IL6R-G1d/IL6R-L
- Relative FcgRIa-binding Activity [3]: 0.0006 fold of IL6R-G1d/IL6R-L
- Relative FcgRIIaR-binding Activity [4]: 0.022 fold of IL6R-G1d/IL6R-L
- Relative FcgRIIIaV-binding Activity [5]: 0.006 fold of IL6R-G1d/IL6R-L
- Relative FcgRIIaH-binding Activity [6]: 0.008 fold of IL6R-G1d/IL6R-L
- Relative FcgRIIb-binding Activity [7]: 1.89 fold of IL6R-G1d/IL6R-L
B6: IL6R-P692/IL6R-L (antibody, human IgG1, kappa)
heavy: B1 heavy with L237F, G239Q, N326S, A332H
light: not shown

- Relative FcgRIIaR-binding Activity [1]: 10.5 % of IL6R-G1d/IL6R-L
- Relative FcgRIIb-binding Activity [2]: 102 % of IL6R-G1d/IL6R-L
- Relative FcgRIa-binding Activity [3]: 0.0011 fold of IL6R-G1d/IL6R-L
- Relative FcgRIIaR-binding Activity [4]: 0.017 fold of IL6R-G1d/IL6R-L
- Relative FcgRIIIaV-binding Activity [5]: 0.005 fold of IL6R-G1d/IL6R-L
- Relative FcgRIIaH-binding Activity [6]: 0.007 fold of IL6R-G1d/IL6R-L
- Relative FcgRIIb-binding Activity [7]: 1.28 fold of IL6R-G1d/IL6R-L
B7: IL6R-P690/IL6R-L (antibody, human IgG1, kappa)
heavy: B1 heavy with G239Q, N326S, A332H
light: not shown

- Relative FcgRIIaR-binding Activity [1]: 12.6 % of IL6R-G1d/IL6R-L
- Relative FcgRIIb-binding Activity [2]: 100 % of IL6R-G1d/IL6R-L
- Relative FcgRIa-binding Activity [3]: 0.0471 fold of IL6R-G1d/IL6R-L
- Relative FcgRIIaR-binding Activity [4]: 0.02 fold of IL6R-G1d/IL6R-L
- Relative FcgRIIIaV-binding Activity [5]: 0.008 fold of IL6R-G1d/IL6R-L
- Relative FcgRIIaH-binding Activity [6]: 0.007 fold of IL6R-G1d/IL6R-L
- Relative FcgRIIb-binding Activity [7]: 1.01 fold of IL6R-G1d/IL6R-L
B8: IL6R-P687/IL6R-L (antibody, human IgG1, kappa)
heavy: B1 heavy with M243F, E298Y, S300A, A332H
light: not shown

- Relative FcgRIIaR-binding Activity [1]: 11.4 % of IL6R-G1d/IL6R-L
- Relative FcgRIIb-binding Activity [2]: 87.9 % of IL6R-G1d/IL6R-L
- Relative FcgRIa-binding Activity [3]: 0.0423 fold of IL6R-G1d/IL6R-L
- Relative FcgRIIaR-binding Activity [4]: 0.018 fold of IL6R-G1d/IL6R-L
- Relative FcgRIIIaV-binding Activity [5]: 0.008 fold of IL6R-G1d/IL6R-L
- Relative FcgRIIaH-binding Activity [6]: 0.006 fold of IL6R-G1d/IL6R-L
- Relative FcgRIIb-binding Activity [7]: 0.918 fold of IL6R-G1d/IL6R-L
B9: IL6R-P693/IL6R-L (antibody, human IgG1, kappa)
heavy: B1 heavy with M243F, S300A, N326S
light: not shown

- Relative FcgRIIaR-binding Activity [1]: 12 % of IL6R-G1d/IL6R-L
- Relative FcgRIIb-binding Activity [2]: 123 % of IL6R-G1d/IL6R-L
- Relative FcgRIa-binding Activity [3]: 0.0017 fold of IL6R-G1d/IL6R-L
- Relative FcgRIIaR-binding Activity [4]: 0.019 fold of IL6R-G1d/IL6R-L
- Relative FcgRIIIaV-binding Activity [5]: 0.009 fold of IL6R-G1d/IL6R-L
- Relative FcgRIIaH-binding Activity [6]: 0.016 fold of IL6R-G1d/IL6R-L
- Relative FcgRIIb-binding Activity [7]: 1.25 fold of IL6R-G1d/IL6R-L
B10: IL6R-P726/IL6R-L (antibody, human IgG1, kappa)
heavy: B1 heavy with G239Q, N326H, A332H
light: not shown
